From article doi:10.1101/2025.05.27.656346

Biological target: β-gal 4-domain fragment 1-725 (E. coli)
Assay: negative-stain EM

## β-gal 4-domain fragment 1-725 (domain or fragment)
  stoichiometry N: 4
